Data on two molecules can be found in publication PMC2192333 (The Journal of Experimental Medicine, 1996).

Experiment [1] has as its system ICAM-1. The settings on record: cited from earlier work.
Experiment [2] has as its system ICAM-1. As to the kind of experiment: Adhesion of 293 cells transfected with CD11a I domain mutants/CD18 to ICAM-1Fc. The experiment is classed as cell-based, human. The settings on record: wide range of concentrations of ICAM-1, data not shown.

B1: D137A (protein, UniProt P20701 26-1170, looked up, variant D137A)
Integrin alpha-L: YNLDVRGARSFSPPRAGRHFGYRVLQVGNGVIVGAPGEGNSTGSLYQCQSGTGHCLPVTLRGSNYTSKYLGMTLATDPTDGSILACDPGLSRTCDQNTYLSGLCYLFRQNLQGPMLQGRPGFQECIKGNVDLVFLFAGSMSLQPDEFQKILDFMKDVMKKLSNTSYQFAAVQFSTSYKTEFDFSDYVKRKDPDALLKHVKHMLLLTNTFGAINYVATEVFREELGARPDATKVLIIITDGEATDSGNIDAAKDIIRYIIGIGKHFQTKESQETLHKFASKPASEFVKILDTFEKLKDLFTELQKKIYVIEGTSKQDLTSFNMELSSSGISADLSRGHAVVGAVGAKDWAGGFLDLKADLQDDTFIGNEPLTPEVRAGYLGYTVTWLPSRQKTSLLASGAPRYQHMGRVLLFQEPQGGGHWSQVQTIHGTQIGSYFGGELCGVDVDQDGETELLLIGAPLFYGEQRGGRVFIYQRRQLGFEEVSELQGDPGYPLGRFGEAITALTDINGDGLVDVAVGAPLEEQGAVYIFNGRHGGLSPQPSQRIEGTQVLSGIQWFGRSIHGVKDLEGDGLADVAVGAESQMIVLSSRPVVDMVTLMSFSPAEIPVHEVECSYSTSNKMKEGVNITICFQIKSLIPQFQGRLVANLTYTLQLDGHRTRRRGLFPGGRHELRRNIAVTTSMSCTDFSFHFPVCVQDLISPINVSLNFSLWEEEGTPRDQRAQGKDIPPILRPSLHSETWEIPFEKNCGEDKKCEANLRVSFSPARSRALRLTAFASLSVELSLSNLEEDAYWVQLDLHFPPGLSFRKVEMLKPHSQIPVSCEELPEESRLLSRALSCNVSSPIFKAGHSVALQMMFNTLVNSSWGDSVELHANVTCNNEDSDLLEDNSATTIIPILYPINILIQDQEDSTLYVSFTPKGPKIHQVKHMYQVRIQPSIHDHNIPTLEAVVGVPQPPSEGPITHQWSVQMEPPVPCHYEDLERLPDAAEPCLPGALFRCPVVFRQEILVQVIGTLELVGEIEASSMFSLCSSLSISFNSSKHFHLYGSNASLAQVVMKVDVVYEKQMLYLYVLSGIGGLLLLLLIFIVLYKVGFFKRNLKEKMEAGRGVPNGIPAEDSEQLASGQEAGDPGCLKPLHEKDSESGGGKD
As for B1, in the experiment on ICAM-1 [1], the “binding to ICAM-1” value is recorded as “critical to ICAM-1 binding”.

B2: H/M53: human Ile-126 and Asn-129 replaced with murine residues Met and Lys, respectively (protein, UniProt P20701 26-1170, looked up, variant I126M N129K)
Integrin alpha-L: YNLDVRGARSFSPPRAGRHFGYRVLQVGNGVIVGAPGEGNSTGSLYQCQSGTGHCLPVTLRGSNYTSKYLGMTLATDPTDGSILACDPGLSRTCDQNTYLSGLCYLFRQNLQGPMLQGRPGFQECMKGKVDLVFLFDGSMSLQPDEFQKILDFMKDVMKKLSNTSYQFAAVQFSTSYKTEFDFSDYVKRKDPDALLKHVKHMLLLTNTFGAINYVATEVFREELGARPDATKVLIIITDGEATDSGNIDAAKDIIRYIIGIGKHFQTKESQETLHKFASKPASEFVKILDTFEKLKDLFTELQKKIYVIEGTSKQDLTSFNMELSSSGISADLSRGHAVVGAVGAKDWAGGFLDLKADLQDDTFIGNEPLTPEVRAGYLGYTVTWLPSRQKTSLLASGAPRYQHMGRVLLFQEPQGGGHWSQVQTIHGTQIGSYFGGELCGVDVDQDGETELLLIGAPLFYGEQRGGRVFIYQRRQLGFEEVSELQGDPGYPLGRFGEAITALTDINGDGLVDVAVGAPLEEQGAVYIFNGRHGGLSPQPSQRIEGTQVLSGIQWFGRSIHGVKDLEGDGLADVAVGAESQMIVLSSRPVVDMVTLMSFSPAEIPVHEVECSYSTSNKMKEGVNITICFQIKSLIPQFQGRLVANLTYTLQLDGHRTRRRGLFPGGRHELRRNIAVTTSMSCTDFSFHFPVCVQDLISPINVSLNFSLWEEEGTPRDQRAQGKDIPPILRPSLHSETWEIPFEKNCGEDKKCEANLRVSFSPARSRALRLTAFASLSVELSLSNLEEDAYWVQLDLHFPPGLSFRKVEMLKPHSQIPVSCEELPEESRLLSRALSCNVSSPIFKAGHSVALQMMFNTLVNSSWGDSVELHANVTCNNEDSDLLEDNSATTIIPILYPINILIQDQEDSTLYVSFTPKGPKIHQVKHMYQVRIQPSIHDHNIPTLEAVVGVPQPPSEGPITHQWSVQMEPPVPCHYEDLERLPDAAEPCLPGALFRCPVVFRQEILVQVIGTLELVGEIEASSMFSLCSSLSISFNSSKHFHLYGSNASLAQVVMKVDVVYEKQMLYLYVLSGIGGLLLLLLIFIVLYKVGFFKRNLKEKMEAGRGVPNGIPAEDSEQLASGQEAGDPGCLKPLHEKDSESGGGKD
Consider B2, for which the “adhesion to ICAM-1, wide range of ICAM-1 concentrations” value with ICAM-1 [2] is listed as “identical binding as that of wild-type CD11a”.
